Source: the Human Domainome abundance scans (Beltran et al. 2025)
± gives the uncertainty stated by the source.

B1: Heterogeneous nuclear ribonucleoprotein U-like protein 2, residues 1 to 40; numbered along this chain, Q1KMD3 (parent)
chain: MEVKRLKVTELRSELQRRGLDSRGLKVDLAQRLQEALDAE

Variants of: B1
Assay: abundance fitness (aPCA) (normalised: wild type 0, dead -1); higher = more abundant; growth selection in yeast, the domain comes from the species named
Conditions: Homo sapiens

**Q.** Which abundance fitness does the source give for K7A here?
**A.** The abundance fitness was -0.069 ± 0.05.

**Q.** Which abundance fitness does the source give for K4Y here?
**A.** Its abundance fitness is -0.112 ± 0.095.

**Q.** Which abundance fitness does the source give for K4R here?
**A.** Its abundance fitness is -0.152 ± 0.051.

**Q.** For K4G, which abundance fitness is on record?
**A.** The abundance fitness was -0.126 ± 0.047.

**Q.** With K4I as the variant, how does the abundance fitness read?
**A.** Its abundance fitness is -0.317 ± 0.098.

**Q.** For K4L, which abundance fitness is on record?
**A.** Its abundance fitness is -0.123 ± 0.059.

**Q.** Which abundance fitness does the source give for K4A here?
**A.** Its abundance fitness is -0.06 ± 0.049.

**Q.** Which abundance fitness does the source give for K4T here?
**A.** Its abundance fitness is 0.019 ± 0.088.

**Q.** With K4M as the variant, how does the abundance fitness read?
**A.** The abundance fitness was 0.091 ± 0.11.

**Q.** Which abundance fitness does the source give for K4W here?
**A.** The abundance fitness was -0.097 ± 0.058.

**Q.** For K4C, which abundance fitness is on record?
**A.** Its abundance fitness is -0.181 ± 0.067.

**Q.** For K4D, which abundance fitness is on record?
**A.** The abundance fitness was -0.082 ± 0.073.

**Q.** For K4E, which abundance fitness is on record?
**A.** The abundance fitness was 0.09 ± 0.062.

**Q.** Which abundance fitness does the source give for K4H here?
**A.** The abundance fitness was 0.335 ± 0.46.

**Q.** With K4P as the variant, how does the abundance fitness read?
**A.** Its abundance fitness is -0.37 ± 0.074.

**Q.** With K4Q as the variant, how does the abundance fitness read?
**A.** The abundance fitness was -0.028 ± 0.073.

**Q.** Which abundance fitness does the source give for K4F here?
**A.** The abundance fitness was -0.182 ± 0.17.

**Q.** With V3P as the variant, how does the abundance fitness read?
**A.** The abundance fitness was -0.077 ± 0.063.

**Q.** For V3E, which abundance fitness is on record?
**A.** The abundance fitness was -0.279 ± 0.07.

**Q.** Which abundance fitness does the source give for V3A here?
**A.** The abundance fitness was -0.107 ± 0.055.

**Q.** For V3S, which abundance fitness is on record?
**A.** Its abundance fitness is -0.245 ± 0.062.

**Q.** For V3D, which abundance fitness is on record?
**A.** Its abundance fitness is -0.202 ± 0.085.

**Q.** With V3C as the variant, how does the abundance fitness read?
**A.** Its abundance fitness is -0.357 ± 0.1.

**Q.** For V3F, which abundance fitness is on record?
**A.** Its abundance fitness is -0.374 ± 0.17.

**Q.** Which abundance fitness does the source give for V3Q here?
**A.** Its abundance fitness is -0.328 ± 0.082.

**Q.** With V3W as the variant, how does the abundance fitness read?
**A.** The abundance fitness was -0.432 ± 0.053.

**Q.** For V3R, which abundance fitness is on record?
**A.** Its abundance fitness is -0.567 ± 0.05.

**Q.** With V3G as the variant, how does the abundance fitness read?
**A.** The abundance fitness was -0.325 ± 0.048.

**Q.** With V3K as the variant, how does the abundance fitness read?
**A.** The abundance fitness was -0.501 ± 0.1.

**Q.** For V3T, which abundance fitness is on record?
**A.** Its abundance fitness is -0.114 ± 0.073.

**Q.** With V3H as the variant, how does the abundance fitness read?
**A.** Its abundance fitness is -0.603 ± 0.19.

**Q.** With V3Y as the variant, how does the abundance fitness read?
**A.** The abundance fitness was -0.226 ± 0.088.

**Q.** For V3I, which abundance fitness is on record?
**A.** The abundance fitness was 0.048 ± 0.13.

**Q.** With V3L as the variant, how does the abundance fitness read?
**A.** Its abundance fitness is -0.122 ± 0.063.

**Q.** Which abundance fitness does the source give for R5V here?
**A.** The abundance fitness was -0.35 ± 0.059.

**Q.** With R5K as the variant, how does the abundance fitness read?
**A.** The abundance fitness was 0.194 ± 0.08.

**Q.** With R5N as the variant, how does the abundance fitness read?
**A.** The abundance fitness was -0.03 ± 0.19.

**Q.** For R5I, which abundance fitness is on record?
**A.** The abundance fitness was -0.237 ± 0.096.

**Q.** For R5S, which abundance fitness is on record?
**A.** The abundance fitness was 0.046 ± 0.055.

**Q.** Which abundance fitness does the source give for R5F here?
**A.** The abundance fitness was -0.302 ± 0.15.

**Q.** For R5P, which abundance fitness is on record?
**A.** Its abundance fitness is -0.435 ± 0.074.

**Q.** With R5D as the variant, how does the abundance fitness read?
**A.** The abundance fitness was 0.181 ± 0.19.

**Q.** For R5Q, which abundance fitness is on record?
**A.** Its abundance fitness is 0.006 ± 0.055.

**Q.** With R5A as the variant, how does the abundance fitness read?
**A.** The abundance fitness was 0.005 ± 0.048.

**Q.** For R5G, which abundance fitness is on record?
**A.** The abundance fitness was -0.021 ± 0.048.

**Q.** With R5M as the variant, how does the abundance fitness read?
**A.** Its abundance fitness is -0.038 ± 0.096.

**Q.** With R5C as the variant, how does the abundance fitness read?
**A.** The abundance fitness was -0.129 ± 0.064.

**Q.** With R5E as the variant, how does the abundance fitness read?
**A.** Its abundance fitness is 0.077 ± 0.061.

**Q.** Which abundance fitness does the source give for R5W here?
**A.** Its abundance fitness is -0.256 ± 0.056.

**Q.** For R5L, which abundance fitness is on record?
**A.** Its abundance fitness is -0.031 ± 0.059.

**Q.** Which abundance fitness does the source give for R5Y here?
**A.** The abundance fitness was -0.247 ± 0.16.

**Q.** For E2W, which abundance fitness is on record?
**A.** The abundance fitness was -0.263 ± 0.067.

**Q.** For E2S, which abundance fitness is on record?
**A.** The abundance fitness was -0.243 ± 0.082.

**Q.** For E2V, which abundance fitness is on record?
**A.** Its abundance fitness is -0.336 ± 0.094.

**Q.** For E2H, which abundance fitness is on record?
**A.** The abundance fitness was -0.201 ± 0.15.

**Q.** With E2A as the variant, how does the abundance fitness read?
**A.** Its abundance fitness is -0.33 ± 0.061.

**Q.** With E2C as the variant, how does the abundance fitness read?
**A.** The abundance fitness was -0.388 ± 0.088.

**Q.** For E2Q, which abundance fitness is on record?
**A.** Its abundance fitness is -0.193 ± 0.091.

**Q.** With E2L as the variant, how does the abundance fitness read?
**A.** Its abundance fitness is -0.294 ± 0.068.

**Q.** For E2T, which abundance fitness is on record?
**A.** Its abundance fitness is -0.243 ± 0.13.

**Q.** Which abundance fitness does the source give for E2Y here?
**A.** Its abundance fitness is -0.161 ± 0.085.

**Q.** With E2G as the variant, how does the abundance fitness read?
**A.** Its abundance fitness is -0.371 ± 0.06.

**Q.** Which abundance fitness does the source give for E2I here?
**A.** The abundance fitness was -0.271 ± 0.12.

**Q.** For E2P, which abundance fitness is on record?
**A.** Its abundance fitness is -0.844 ± 0.1.

**Q.** For E2R, which abundance fitness is on record?
**A.** The abundance fitness was -0.365 ± 0.07.

**Q.** Which abundance fitness does the source give for E2K here?
**A.** The abundance fitness was -0.432 ± 0.079.

**Q.** For M1K, which abundance fitness is on record?
**A.** The abundance fitness was -0.136 ± 0.087.

**Q.** Which abundance fitness does the source give for M1E here?
**A.** The abundance fitness was -0.08 ± 0.078.

**Q.** With M1Q as the variant, how does the abundance fitness read?
**A.** The abundance fitness was -0.514 ± 0.11.

**Q.** For M1T, which abundance fitness is on record?
**A.** The abundance fitness was -0.564 ± 0.13.

**Q.** With M1R as the variant, how does the abundance fitness read?
**A.** The abundance fitness was -0.236 ± 0.061.

**Q.** For M1A, which abundance fitness is on record?
**A.** The abundance fitness was -0.461 ± 0.067.

**Q.** For M1H, which abundance fitness is on record?
**A.** The abundance fitness was -1.03 ± 0.24.

**Q.** With M1C as the variant, how does the abundance fitness read?
**A.** Its abundance fitness is -0.414 ± 0.19.

**Q.** For M1G, which abundance fitness is on record?
**A.** The abundance fitness was -0.383 ± 0.066.

**Q.** Which abundance fitness does the source give for M1F here?
**A.** The abundance fitness was -0.179 ± 0.19.

**Q.** Which abundance fitness does the source give for M1Y here?
**A.** The abundance fitness was -0.749 ± 0.41.

**Q.** Which abundance fitness does the source give for M1W here?
**A.** The abundance fitness was -0.354 ± 0.091.

**Q.** With M1D as the variant, how does the abundance fitness read?
**A.** The abundance fitness was -1.65 ± 0.32.

**Q.** For M1L, which abundance fitness is on record?
**A.** Its abundance fitness is -0.339 ± 0.097.

**Q.** For M1S, which abundance fitness is on record?
**A.** The abundance fitness was -0.589 ± 0.27.

**Q.** For M1V, which abundance fitness is on record?
**A.** Its abundance fitness is -0.277 ± 0.053.

**Q.** For L6S, which abundance fitness is on record?
**A.** The abundance fitness was -0.476 ± 0.059.

**Q.** Which abundance fitness does the source give for L6E here?
**A.** The abundance fitness was -0.26 ± 0.066.

**Q.** Which abundance fitness does the source give for L6G here?
**A.** The abundance fitness was -0.485 ± 0.049.

**Q.** For L6W, which abundance fitness is on record?
**A.** The abundance fitness was -0.281 ± 0.056.

**Q.** With L6Y as the variant, how does the abundance fitness read?
**A.** Its abundance fitness is -0.46 ± 0.15.

**Q.** With L6D as the variant, how does the abundance fitness read?
**A.** The abundance fitness was -0.845 ± 0.23.

**Q.** For L6T, which abundance fitness is on record?
**A.** The abundance fitness was 0.024 ± 0.18.

**Q.** For L6V, which abundance fitness is on record?
**A.** The abundance fitness was -0.425 ± 0.06.

**Q.** For L6M, which abundance fitness is on record?
**A.** Its abundance fitness is 0.348 ± 0.11.

**Q.** Which abundance fitness does the source give for L6I here?
**A.** Its abundance fitness is -0.7 ± 0.31.
